# Data published in FireProtDB (doi:10.1016/j.bbapap.2014.10.010).
# B1: Alanine--glyoxylate aminotransferase, P21549 (parent)
# chain: MASHKLLVTPPKALLKPLSIPNQLLLGPGPSNLPPRIMAAGGLQMIGSMSKDMYQIMDEIKEGIQYVFQTRNPLTLVISGSGHCALEAALVNVLEPGDSFLVGANGIWGQRAVDIGERIGARVHPMTKDPGGHYTLQEVEEGLAQHKPVLLFLTHGESSTGVLQPLDGFGELCHRYKCLLLVDSVASLGGTPLYMDRQGIDILYSGSQKALNAPPGTSLISFSDKAKKKMYSRKTKPFSFYLDIKWLANFWGCDDQPRMYHHTIPVISLYSLRESLALIAEQGLENSWRQHREAAAYLHGRLQALGLQLFVKDPALRLPTVTTVAVPAGYDWRDIVSYVIDHFDIEIMGGLGPSTGKVLRIGLLGCNATRENVDRVTEALRAALQHCPKKKL
# Variants of: B1
# Settings: Homo sapiens; pH 7.4; Thermal; DSC; Hepes 20 mM; NaCl 200 mM; transition: 2; reversible: No; structure 1H0C; whole UniProt chain shown
Variant,Tm [°C],"change of melting temperature, mutant - wild type (higher = more stable) [°C]",unfolding enthalpy (calorimetric) [kcal/mol]
S48H I340M,88,18,599
S48H D52E V113A I340M,91,21,613
P11L I340M I244T,75.8,5.8,402
P11L I340M G170R,75.5,5.5,459
P11L I340M,76.6,6.6,375
P11L I340M A295T,77.5,7.5,500
Q23R,84.5,14.5,475
D52E I340M,86.9,16.9,573
S48H,85.5,15.5,520
P11L I340M H83R,58.2,-11.8,235
Q23R S48H D52E V113A I340M,93.7,23.7,638
S50H,67.1,-2.9,357
I340M,84.1,14.1,530
S48H D52E I340M,89.5,19.5,315
D52E,84.4,14.4,544
P11L,73.8,3.8,399
V113A,83.2,13.2,502
Q23R S48H D52E I340M,92,22,609
